Measured values as given in patent US20250011448A1 (STAIDSON BIOPHARMA, published 2025).

T1: human TNFR2 extracellular domain with C-terminal 10×His tag (human, UniProt P20333 23-257)
T1 construct: also called huTNFR2-His; His-tag-huTNFR2
T1 sequence: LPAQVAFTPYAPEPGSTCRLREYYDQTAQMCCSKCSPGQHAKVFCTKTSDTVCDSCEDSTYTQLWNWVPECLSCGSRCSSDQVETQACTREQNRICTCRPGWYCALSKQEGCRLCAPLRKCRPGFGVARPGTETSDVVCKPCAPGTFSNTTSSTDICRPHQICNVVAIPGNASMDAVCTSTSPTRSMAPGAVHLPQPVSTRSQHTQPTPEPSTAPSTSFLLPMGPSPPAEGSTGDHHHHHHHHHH

T2: cynomolgus monkey TNFR2 extracellular domain with C-terminal 10×His tag (cynomolgus monkey, UniProt P20333 23-257 (human entry))
T2 construct: also called cynoTNFR2-His; His-tag-cynoTNFR2
T2 chain: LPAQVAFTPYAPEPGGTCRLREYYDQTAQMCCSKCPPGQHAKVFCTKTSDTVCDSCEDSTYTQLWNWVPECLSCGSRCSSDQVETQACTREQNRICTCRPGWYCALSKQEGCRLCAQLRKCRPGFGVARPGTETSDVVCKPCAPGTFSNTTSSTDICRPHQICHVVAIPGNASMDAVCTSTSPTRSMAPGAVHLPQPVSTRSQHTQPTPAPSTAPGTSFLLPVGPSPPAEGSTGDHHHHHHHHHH

T3: cynomolgus monkey TNFR2 extracellular domain as used in the blocking ELISA (cynomolgus monkey, UniProt P20333 23-257 (human entry))
T3 construct: also called cynoTNFR2
T3 chain: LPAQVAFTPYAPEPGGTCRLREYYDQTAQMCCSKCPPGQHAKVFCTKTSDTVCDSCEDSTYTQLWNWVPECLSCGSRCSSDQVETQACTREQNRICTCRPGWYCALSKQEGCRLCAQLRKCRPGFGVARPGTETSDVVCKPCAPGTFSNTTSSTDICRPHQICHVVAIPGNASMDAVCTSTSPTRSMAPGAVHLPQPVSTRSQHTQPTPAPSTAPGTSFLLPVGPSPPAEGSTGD


Assays:
[1] = biological target: T1, human TNFR2 extracellular domain with …; test: ELISA, plate coated with His-tagged TNFR2 ECD, serial dilution of chimeric IgG
Procedure: (§1) TNFR2 binding of purified recombinant chimeric antibodies: The huTNFR2, cynoTNFR2 antigen binding ELISA was performed on the purified recombinant chimeric antibodies. Briefly, 384-well, clear, flat bottom, high binding plates (VWR, cat #29444-096) were coated overnight at 4° C. with 1 μg/mL of huTNFR2 or cynomolgus monkey TNFR2-His in PBS. After removing the coating solution, the plates were blocked by adding blocking buffer and incubated at room temperature for 1 hour. Plates were then washed 3 times with wash buffer. Serial dilution of purified antibodies in PBS was added to individual well followed by incubation at room temperature for 1 hour. Plates were washed 3 times with wash buffer. Then 50 μL/well of goat anti hu Kappa —AP (Southern Biotech, cat #2061-04) at 1:3000 dilution or goat anti human IgG Fc-AP at 1:3000 dilution in ELISA diluent was added, incubated at room temperature for 1 hour, washed 5 times with wash buffer and developed for 30 minutes with 50 μL/well of pNPP substrate. Plates were analyzed with a Bio-TEK at 405 nm. The chimeric TNFR2 antibodies were tested positive for binding to huTNFR2 and cynoTNFR2. The TNFR2 binding EC50 values are shown in Table 6, FIG. 1A (for huTNFR2) and FIG. 1B (for cynoTNFR2).

[2] = biological target: T2, cynomolgus monkey TNFR2 extracellular …; test: as above
Procedure: as §1

[3] = biological target: T1, human TNFR2 extracellular domain with …; test: BLI (Octet RED96), antibody captured on AHC biosensor, His-tagged TNFR2 in solution, 1:1 model
Procedure: (§2) The following kinetic assay was performed using anti-human IgG Fc capture (AHC) biosensors (ForteBio) in kinetics buffer (PBS, 0.1% Tween-20 and 1% bovine serum albumin): (a) antibody (2 μg/mL) for 300 sec, (b) baseline for 120 sec, (c) association with His-tag-huTNFR2 (2.5, 0.5 and 0 μg/mL) and His-tag-cynoTNFR2 (2.5, 0.5 and 0 μg/mL) for 420 sec and (d) dissociation for 1200 sec. Data fitting and analysis was performed with Octet data analysis software 8.0 (ForteBio) using a 1:1 binding model after Savitzky-Golay filtering.

[4] = biological target: T2, cynomolgus monkey TNFR2 extracellular …; test: as above
Procedure: as §2

[5] = biological target: T3, cynomolgus monkey TNFR2 extracellular …; test: blocking ELISA: antibody pre-mixed with cynoTNFR2, binding of cynoTNFR2 to coated cynomolgus monkey TNFα read out
Procedure: 96-well round bottom ELISA plates were coated overnight at 4° C. with 50 μL/well of 0.5 μg/mL human TNFα recombinant protein (R&D system, Cat #210-TA-100) in coating buffer. After removing the coating solution, blocking buffer was added into the plates followed by incubation at room temperature for 1 hour in order to block unspecific binding. During the blocking period, hybridoma antibodies samples were mixed with 0.5 μg/mL TNFR2-huFc at a 1:1 volume ratio and incubated at room temperature for another 1.5 hours. Then 50 μL/well of antigen-antibody mix solution was transferred into TNFα coated wells and incubated at room temperature for 1.5 hours. Plates were then washed 5 times with wash buffer. Then, 50 μL/well of goats anti-human IgG Fc-AP (Southern Biotech, cat #2014-04) at 1:2000 dilution in assay buffer was added, incubated at room temperature for 1 hour, washed 4 times with wash buffer and developed for 30 minutes with 50 μL/well of pNPP substrate. Plates were analyzed with a Synergy HT (Bio-TEK) at 405 nm. Parental hybridomas with the desired human and cynoTNFR2 binding as well as the ability to block human TNFR2 and human TNFα binding were prioritized for subcloning and further characterization. Subcloning was carried out with limited dilution and visual inspection was performed to ensure clonality. Hybridoma subclones were screened with the same binding and blocking assays and selected positive hits were cryopreserved.
TNFR2 blocking by purified recombinant chimeric antibodies: Human TNFR2 blocking ELISA was performed on purified recombinant chimeric antibodies following the same protocol as described above, except that 50 μL/well of serial dilution of purified antibodies (starting at 10 μg/mL, 1:3 dilution) in assay buffer was added into the reaction. The blocking IC₅₀ value represents the antibody concentration that inhibited 50% of huTNFR2 or cynoTNFR2 binding to coated human TNFα or cynomolgus monkey TNFα.

| Binder | EC50 [1] [nM] | EC50 [2] [nM] | Kd [3] [nM] | koff [3] [s⁻¹] | kon [3] [M⁻¹ s⁻¹] | Kd [4] [nM] | koff [4] [s⁻¹] | kon [4] [M⁻¹ s⁻¹] | IC50 [5] [nM] |
| --- | --- | --- | --- | --- | --- | --- | --- | --- | --- |
| 15H10 chimeric anti-TNFR2 antibody (antibody, V domains shown, Chimeric: mouse variable domains with human constant regions, made as recombinant IgG1) VH: DVQLQESGPGLVTPSQSLSLTCSVTGYSITSGYYWNWIRQFPGNKLEWMGYITYDGNNNYNPSLKSRFSITRDTSKNQFFLKLNSVTSEDTATYYCARGDYGDSAMDYWGQGTSVTVSS VL: EIVLTQSPAITAASLGQKVTITCSASSGVNYMHWYQQKSGTSPKPWIYEISKLASGVPARFSGSGSGTSYSLTISSMEAEDAAIYYCQQWNYPLITFGAGTKVELK | 0.051 | 0.05 | 0.453 | 2.58e-05 | 57100 | 1.42 | 0.000368 | 259000 | 1.01 |
| 11C1 chimeric anti-TNFR2 antibody (antibody, V domains shown, Chimeric: mouse variable domains with human constant regions, made as recombinant IgG1) VH: DVQLRESGPGLVTPSQSLSLTCSVTGYSITSGYYWNWIRQIPGNKLEWMGYITYDGNNNYDPSLKNRISITRDTSKNQFFLTLNSVTSEDTATYYCARGDYGDSAMDYWGQGTSVTVSS VL: EIVLTQSPAITAASLGQKVTITCSASSSVSYMHWYQQKSGTSPKPWIYEISKLASGVPARFSGSGSGTSYSLIISSMEAEDAAIYYCQQWNYPLITFGAGTKLELK | 0.0508 | 0.057 | 2.46 | 0.000258 | 105000 |  |  |  | 1.09 |

Binders with a lower EC50 [1], results first:

| EC50 [1] [nM] | EC50 [2] [nM] | Kd [3] [nM] | koff [3] [s⁻¹] | kon [3] [M⁻¹ s⁻¹] | Kd [4] [nM] | koff [4] [s⁻¹] | kon [4] [M⁻¹ s⁻¹] | IC50 [5] [nM] | Binder |
| --- | --- | --- | --- | --- | --- | --- | --- | --- | --- |
| 0.039 | 0.0488 | 1.95 | 0.000251 | 129000 | 1.3 | 0.000534 | 412000 | 1.02 | 85G8.4 chimeric anti-TNFR2 antibody (antibody, V domains shown, Chimeric: mouse variable domains with human constant regions, made as recombinant IgG1) VH: EVQLQQSGPELVKPGASVKISCKTSGYTFTDFNMDWVKQSHGKSLEWIGYINPNNGDAAYNQKFKSKATLTVDKSSNTAYMELHSLTSDDSAVYYCARWGWAFAYWGQGTLVTVSA VL: DIVMTQSHKIMSTSVGDRVSITCKASQDVKTAVAWYQQKPGQSPKLLIYATSYRYTGVPDRFTGSGSGTDFTFTISTVQAEDLAVYYCQQHYSIPYTFGGGTKLEIK |
| 0.0293 | 0.0414 | 4.53 | 0.00114 | 251000 | 1.59 | 0.002 | 1.26e+06 | 0.927 | 29G3 chimeric anti-TNFR2 antibody (antibody, V domains shown, Chimeric: mouse variable domains with human constant regions, made as recombinant IgG1) VH: EVMLVESGGASVKPGGSLKLSCAASGFTFSNFAMSWVRQTPEKRLEWVATIRSGDNYSYYSDNVKGRFTISRDNARNTLYLQMSSLRSKDTSIYYCARNWDKVFDYWGQGTTLTVSS VL: DIVLTQSPASLAVSLGQRATISCRASESVDSYGYSFMHWYQQKPGQPPKLLIYRASNLKSGIPARFSGSGSRTDFTLTINPVEADDVATYYCQQSNEDHTFGGGTKLEIK |
